According to patent US20060257938A1, “Method of screening for drugs that block ligand binding to a lipid binding protein” (priority 2005, published 2006):
“And” between values parts separate entries of the source, which are not always exact repeats. Identical values can stand only once.

B1: 68Y, 72A (protein, listed as Rattus norvegicus)
chain: AFDGTWKVDRNENYEKFMEKMGINVVKRKLGAHDNLKLTITQEGNKFTVKESSNFRNIDVVFELGVDYAYSAADGTELTGTWTMEGNKLVGKFKRVDNGKELIAVREISGNELIQTYTYEGVEAKRIFKKE
modifications: PEPTIDE (1)...(131) wild-type rat intestinal fatty acid binding protein
B2: 70M, 72A (protein, listed as Rattus norvegicus)
chain: AFDGTWKVDRNENYEKFMEKMGINVVKRKLGAHDNLKLTITQEGNKFTVKESSNFRNIDVVFELGVDFAMSAADGTELTGTWTMEGNKLVGKFKRVDNGKELIAVREISGNELIQTYTYEGVEAKRIFKKE
modifications: PEPTIDE (1)...(131) wild-type rat intestinal fatty acid binding protein
B3: 72M (protein, listed as Rattus norvegicus)
chain: AFDGTWKVDRNENYEKFMEKMGINVVKRKLGAHDNLKLTITQEGNKFTVKESSNFRNIDVVFELGVDFAYSMADGTELTGTWTMEGNKLVGKFKRVDNGKELIAVREISGNELIQTYTYEGVEAKRIFKKE
modifications: PEPTIDE (1)...(131) wild-type rat intestinal fatty acid binding protein
B4: 72E (protein, listed as Rattus norvegicus)
chain: AFDGTWKVDRNENYEKFMEKMGINVVKRKLGAHDNLKLTITQEGNKFTVKESSNFRNIDVVFELGVDFAYSEADGTELTGTWTMEGNKLVGKFKRVDNGKELIAVREISGNELIQTYTYEGVEAKRIFKKE
modifications: PEPTIDE (1)...(131) wild-type rat intestinal fatty acid binding protein
B5: 72N (protein, listed as Rattus norvegicus)
chain: AFDGTWKVDRNENYEKFMEKMGINVVKRKLGAHDNLKLTITQEGNKFTVKESSNFRNIDVVFELGVDFAYSNADGTELTGTWTMEGNKLVGKFKRVDNGKELIAVREISGNELIQTYTYEGVEAKRIFKKE
modifications: PEPTIDE (1)...(131) wild-type rat intestinal fatty acid binding protein
B6: 104F1, 72A (protein, listed as Rattus norvegicus)
chain: AFDGTWKVDRNENYEKFMEKMGINVVKRKLGAHDNLKLTITQEGNKFTVKESSNFRNIDVVFELGVDFAYSAADGTELTGTWTMEGNKLVGKFKRVDNGKELIFVREISGNELIQTYTYEGVEAKRIFKKE
modifications: PEPTIDE (1)...(131) wild-type rat intestinal fatty acid binding protein
B7: 72G (protein, listed as Rattus norvegicus)
chain: AFDGTWKVDRNENYEKFMEKMGINVVKRKLGAHDNLKLTITQEGNKFTVKESSNFRNIDVVFELGVDFAYSGADGTELTGTWTMEGNKLVGKFKRVDNGKELIAVREISGNELIQTYTYEGVEAKRIFKKE
modifications: PEPTIDE (1)...(131) wild-type rat intestinal fatty acid binding protein
B8: 72C (protein, listed as Rattus norvegicus)
chain: AFDGTWKVDRNENYEKFMEKMGINVVKRKLGAHDNLKLTITQEGNKFTVKESSNFRNIDVVFELGVDFAYSCADGTELTGTWTMEGNKLVGKFKRVDNGKELIAVREISGNELIQTYTYEGVEAKRIFKKE
modifications: PEPTIDE (1)...(131) wild-type rat intestinal fatty acid binding protein
B9: 72K (protein, listed as Rattus norvegicus)
chain: AFDGTWKVDRNENYEKFMEKMGINVVKRKLGAHDNLKLTITQEGNKFTVKESSNFRNIDVVFELGVDFAYSKADGTELTGTWTMEGNKLVGKFKRVDNGKELIAVREISGNELIQTYTYEGVEAKRIFKKE
modifications: PEPTIDE (1)...(131) wild-type rat intestinal fatty acid binding protein
B10: 72D (protein, listed as Rattus norvegicus)
chain: AFDGTWKVDRNENYEKFMEKMGINVVKRKLGAHDNLKLTITQEGNKFTVKESSNFRNIDVVFELGVDFAYSDADGTELTGTWTMEGNKLVGKFKRVDNGKELIAVREISGNELIQTYTYEGVEAKRIFKKE
modifications: PEPTIDE (1)...(131) wild-type rat intestinal fatty acid binding protein
B11: 70C, 72A (protein, listed as Rattus norvegicus)
chain: AFDGTWKVDRNENYEKFMEKMGINVVKRKLGAHDNLKLTITQEGNKFTVKESSNFRNIDVVFELGVDFACSAADGTELTGTWTMEGNKLVGKFKRVDNGKELIAVREISGNELIQTYTYEGVEAKRIFKKE
modifications: PEPTIDE (1)...(131) wild-type rat intestinal fatty acid binding protein

Legend:
Format in all cases: binding
Conditions in all cases: response relative to ADIFAB2
[1] = Probe fluorescence ratio response to arachidonic acid relative to ADIFAB2
Outline: (§1)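 Fluorescently labeled rat intestinal FABP variants were read at two emission wavelengths, near the unbound maximum (about 420 to 480 nm) and the FFA-bound maximum (about 495 to 580 nm). R = Fλ1/Fλ2 after subtracting probe-free intensity; ΔR = R+agent − R0, normalized to ADIFAB2 (rI-FABP-L72A).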

[2] = Probe fluorescence ratio response to linolenic acid relative to ADIFAB2
Outline: as §1

[3] = Probe fluorescence ratio response to linoleic acid relative to ADIFAB2
Outline: as §1

[4] = Probe fluorescence ratio response to oleic acid relative to ADIFAB2
Outline: as §1

[5] = Probe fluorescence ratio response to palmitic acid relative to ADIFAB2
Outline: as §1

Molecule | DR/DR AA ([1]; Arachidonic acid) | DR/DR LNA [2] | DR/DR LA [3] | DR/DR OA [4] | DR/DR PA [5] | DR/DR AA ([1]; arachidonic acid)
B1 | 0.42 | 0.41 | 0.36 | 0.46 | 0.35 | –
B2 | 0.34 | 0.53 | 0.39 | 0.42 | 0.26 | –
B3 | 1.31 | 1.35 | 1.46 | 1.49 | 1.32 | –
B4 | 0.27 | 0.36 | 0.38 | 0.34 | 0.19 | –
B5 | 0.65 | 0.70 and 0.702 | 0.77 | 0.83 and 0.831 | 0.44 and 0.441 | 0.652
B6 | – | 0.42 | 0.47 | 0.45 | 0.27 | 0.66
B7 | 0.62 | 0.48 and 0.590 | 0.48 and 0.544 | 0.52 and 0.628 | 0.26 and 0.307 | 0.871
B8 | 0.14 | 0.17 | 0.25 | 0.20 | 0.12 | –
B9 | 0.26 | 0.31 | 0.26 | 0.19 | 0.13 | –
B10 | 0.27 | 0.41 | 0.37 | 0.28 | 0.24 | –
B11 | 0.23 | 0.24 | 0.27 | 0.24 | 0.14 | –
